Bridges are numbered along the chain shown (N, C = ends). Primed or numbered codes have the meaning given here. Where no end group is shown, it is not given here. Side-chain parts run from the residue outwards. [ ]: non-standard residue; d: D form. Trp(5-OMe) = COc1ccc2[nH]cc(C[C@H](N)C(=O)O)c2c1; Phe(F5) = N[C@@H](Cc1c(F)c(F)c(F)c(F)c1F)C(=O)O; Dip = N[C@H](C(=O)O)C(c1ccccc1)c1ccccc1; Phe(4-NH2) = Nc1ccc(C[C@H](N)C(=O)O)cc1; Bta = N[C@@H](Cc1csc2ccccc12)C(=O)O; Igl = N[C@H](C(=O)O)C1Cc2ccccc2C1; hPhe = N[C@@H](CCc1ccccc1)C(=O)O; 3Pal = N[C@@H](Cc1cccnc1)C(=O)O; 2Thi = N[C@@H](Cc1cccs1)C(=O)O; DBCO′ = dibenzocyclooctyne; hCys = N[C@@H](CCS)C(=O)O; Orn = NCCC[C@H](N)C(=O)O; PEG4′ = not defined here; Pra = C#CC[C@H](N)C(=O)O; Dap = NC[C@H](N)C(=O)O
B1: P2-91 (peptide)
peptide: DPCTWEV[Bta]GRECLQ
modifications: disulfide 3-12; not fully specified (N-terminus)
notes: P2 backbone; also called P2 with 3-Benzothienyl Alanine at W8
B2: P2-94 (peptide)
peptide: DPCT[hPhe]EVWGRECLQ
modifications: disulfide 3-12; not fully specified (N-terminus)
notes: P2 backbone; also called P2 with Homophenylalanine at W5
B3: P2-92 (peptide)
peptide: DPCT[2Thi]EVWGRECLQ
modifications: disulfide 3-12; not fully specified (N-terminus)
notes: P2 backbone; also called P2 with 2-Thienyl Alanine at W5
B4: P2-86 (peptide)
peptide: DPCT[Phe(4-NH2)]EVWGRECLQ
modifications: disulfide 3-12; not fully specified (N-terminus)
notes: P2 backbone; also called P2 with 4-Amino Phenylalanine at W5
B5: P2-52 (peptide)
peptide: H-DP[hCys]TWEVWGRE[hCys]LQGG[Pra]G-NH2
modifications: disulfide 3-12
SMILES: C#CC[C@H](NC(=O)CNC(=O)CNC(=O)[C@H](CCC(N)=O)NC(=O)[C@H](CC(C)C)NC(=O)[C@@H]1CCSSCC[C@H](NC(=O)[C@@H]2CCCN2C(=O)[C@@H](N)CC(=O)O)C(=O)N[C@@H]([C@@H](C)O)C(=O)N[C@@H](Cc2c[nH]c3ccccc23)C(=O)N[C@@H](CCC(=O)O)C(=O)N[C@@H](C(C)C)C(=O)N[C@@H](Cc2c[nH]c3ccccc23)C(=O)NCC(=O)N[C@@H](CCCNC(=N)N)C(=O)N[C@@H](CCC(=O)O)C(=O)N1)C(=O)NCC(N)=O
B6: P2-96 (peptide)
peptide: DPCT[Dip]EVWGRECLQ
modifications: disulfide 3-12; not fully specified (N-terminus)
notes: P2 backbone; also called P2 with Diphenylalanine at W5
B7: P2-53 (peptide)
peptide: DPCTWEVWGREXLQGGGG
modifications: free N-terminus; penicillamine (Pen) at 12, disulfide with Cys3; Par at 17; C-terminal amide
B8: P2-90 (peptide)
peptide: DPCTXEVWGRECLQ
modifications: not fully specified; 3-Benzothienyl Alanine at 5; Cys3-Cys12 disulfide
notes: P2 backbone; also called P2 with 3-Benzothienyl Alanine at W5
B9: P2-58 (peptide)
peptide: H-GDP[Orn]TWEVWGREDLQGG[Pra]G-NH2
modifications: lactam 4-13
SMILES: C#CC[C@H](NC(=O)CNC(=O)CNC(=O)[C@H](CCC(N)=O)NC(=O)[C@H](CC(C)C)NC(=O)[C@@H]1CC(=O)NCCC[C@H](NC(=O)[C@@H]2CCCN2C(=O)[C@H](CC(=O)O)NC(=O)CN)C(=O)N[C@@H]([C@@H](C)O)C(=O)N[C@@H](Cc2c[nH]c3ccccc23)C(=O)N[C@@H](CCC(=O)O)C(=O)N[C@@H](C(C)C)C(=O)N[C@@H](Cc2c[nH]c3ccccc23)C(=O)NCC(=O)N[C@@H](CCCNC(=N)N)C(=O)N[C@@H](CCC(=O)O)C(=O)N1)C(=O)NCC(N)=O
B10: P2-74 (peptide)
peptide: DPCT[3Pal]EVWGRECLQ
modifications: disulfide 3-12; not fully specified (N-terminus)
notes: P2 backbone; also called P2 with 3-Pyridyl Alanine at W5
B11: P2-101 (peptide)
peptide: DPCTWEVXGRECLQ
modifications: not fully specified; 5-Methoxy Tryptophan at 8; Cys3-Cys12 disulfide
notes: P2 backbone; also called P2 with 5-Methoxy Tryptophan at W8
B12: P2-88 (peptide)
peptide: DPCT[Phe(F5)]EVWGRECLQ
modifications: disulfide 3-12; not fully specified (N-terminus)
notes: P2 backbone; also called P2 with Pentafluoro Phenylalanine at W5
B13: P2-65 (peptide)
peptide: H-GDPDTWEVWGRE[Orn]LQGG[Pra]G-NH2
modifications: lactam 4-13
SMILES: C#CC[C@H](NC(=O)CNC(=O)CNC(=O)[C@H](CCC(N)=O)NC(=O)[C@H](CC(C)C)NC(=O)[C@@H]1CCCNC(=O)C[C@H](NC(=O)[C@@H]2CCCN2C(=O)[C@H](CC(=O)O)NC(=O)CN)C(=O)N[C@@H]([C@@H](C)O)C(=O)N[C@@H](Cc2c[nH]c3ccccc23)C(=O)N[C@@H](CCC(=O)O)C(=O)N[C@@H](C(C)C)C(=O)N[C@@H](Cc2c[nH]c3ccccc23)C(=O)NCC(=O)N[C@@H](CCCNC(=N)N)C(=O)N[C@@H](CCC(=O)O)C(=O)N1)C(=O)NCC(N)=O
B14: P2-68 (peptide)
peptide: H-GDPETWEVWGRE[Orn]LQGG[Pra]G-NH2
modifications: lactam 4-13
SMILES: C#CC[C@H](NC(=O)CNC(=O)CNC(=O)[C@H](CCC(N)=O)NC(=O)[C@H](CC(C)C)NC(=O)[C@@H]1CCCNC(=O)CC[C@H](NC(=O)[C@@H]2CCCN2C(=O)[C@H](CC(=O)O)NC(=O)CN)C(=O)N[C@@H]([C@@H](C)O)C(=O)N[C@@H](Cc2c[nH]c3ccccc23)C(=O)N[C@@H](CCC(=O)O)C(=O)N[C@@H](C(C)C)C(=O)N[C@@H](Cc2c[nH]c3ccccc23)C(=O)NCC(=O)N[C@@H](CCCNC(=N)N)C(=O)N[C@@H](CCC(=O)O)C(=O)N1)C(=O)NCC(N)=O
B15: P1-1 (peptide)
peptide: Ac-SECAPLAPDWLSCILGGK(DBCO′)-NH2
modifications: disulfide 3-13
notes: also called P1 alanine scan, AA position 4
B16: P1-7 (peptide)
peptide: Ac-SECFPLAPDWASCILGGK(DBCO′)-NH2
modifications: disulfide 3-13
notes: also called P1 alanine scan, AA position 11
B17: P1-4 (peptide)
peptide: Ac-SECFPLAADWLSCILGGK(DBCO′)-NH2
modifications: disulfide 3-13
notes: also called P1 alanine scan, AA position 8
B18: P1-2 (peptide)
peptide: Ac-SECFALAPDWLSCILGGK(DBCO′)-NH2
modifications: disulfide 3-13
notes: also called P1 alanine scan, AA position 5
B19: P1-8 (peptide)
peptide: Ac-SECFPLAPDWLACILGGK(DBCO′)-NH2
modifications: disulfide 3-13
notes: also called P1 alanine scan, AA position 12
B20: P1-5 (peptide)
peptide: Ac-SECFPLAPAWLSCILGGK(DBCO′)-NH2
modifications: disulfide 3-13
notes: also called P1 alanine scan, AA position 9
B21: P1-6 (peptide)
peptide: Ac-SECFPLAPDALSCILGGK(DBCO′)-NH2
modifications: disulfide 3-13
notes: also called P1 alanine scan, AA position 10
B22: P1-3-4 (peptide)
peptide: Ac-SECFPAAPDWLSCIAGGK(DBCO′)-NH2
modifications: disulfide 3-13
notes: also called alanine scan of flanking residues on P1-3, AA position 15
B23: P1-3-1 (peptide)
peptide: Ac-AECFPAAPDWLSCILGGK(DBCO′)-NH2
modifications: disulfide 3-13
notes: also called alanine scan of flanking residues on P1-3, AA position 1
B24: 5% P2-2 nanoparticle (other)
peptide: Ac-DACTWEVWGRECLQGGK-NH2
modifications: disulfide 3-12; not fully specified (residue 17)
notes: also called P2-2 5% Ligand Density NP; alanine analog NP
B25: 5% P2-55 nanoparticle (other)
peptide: DPXTWEVWGREXLQGGK
modifications: not fully specified; N-terminal acetyl; penicillamine at 3 and 12, disulfide; Lys17(PEG4-DBCO) clicked to azide PLA-PEG nanoparticle at 5%; C-terminal amide
notes: also called P2-55 5% Ligand Density NP; Pen analog NP

biological target: T1, Fc tagged recombinant human EGFR (rhEGFR-Fc, R&D systems, Cat#344-ER-050) (human, UniProt P00533 25-645); experiment: SPR
T1 construct: Bought protein; also called apo-EGFR; not shown: Fc tag
Experimental: Surface plasmon resonance (SPR) binding studies were carried out on a Biacore T200 instrument (GE Healthcare). […] The contact time and resulting amount of rhEGFR-Fc capture was varied based on the nature of the analyte, namely whether it was a peptide or nanoparticle.
Peptide binding assays were carried out in 10 mM PBS buffer supplemented with 0.05% surfactant P20 and 5% DMSO by volume, at 25° C. Peptides were injected over the rhEGFR-Fc surface for 60 s, followed by dissociation (buffer injection) for 60 s and regeneration with a 10 s pulse of 3M MgCl₂. A fresh rhEGFR-Fc surface was generated for each concentration of each peptide tested. Peptide binding data was analyzed by fitting to a 1:1 Langmuir kinetic model to obtain the on-rate (kₐ), off-rate (kd) and/or equilibrium binding constant (KD) of the interaction.

Binder | KD Relative to P2 | binding result | Result (affinity relative to KD of P2)
B1 | 124 ratio | – | –
B2 | 9.1 ratio | – | –
B3 | 15.9 ratio | – | –
B4 | 9 ratio | – | –
H-GDPDTWEVWGRE[Dap]LQGG[Pra]G-NH2 (lactam 4-13) [P2-66] | – | no binding | –
H-GDPKTWEVWGREELQGG[Pra]G-NH2 (lactam 4-13) [P2-60] | – | no binding | –
B5 | – | – | 14 ratio
B6 | 8.9 ratio | – | –
DPXTWEVWGRECLQGGGG (free N-terminus; Pen at 3, disulfide with Cys12; Par at 17; C-terminal amide) [P2-54] | – | – | 4.78 ratio
H-GDPDTWEVWGREKLQGG[Pra]G-NH2 (lactam 4-13) [P2-64] | – | no binding | –
DPXTWEVWGREXLQGGGG (free N-terminus; Pen at 3 and 12, disulfide; Par at 17; C-terminal amide, also called PenPen analog) [P2-55 (free-ligand series, GG-Par-G tail)] | – | – | 1.18 ratio
B7 | – | – | 2.64 ratio
B8 | 1.6 ratio | – | –
B9 | – | no binding | –
B10 | 11.8 ratio | – | –
H-GGDPETWEVWGREKLQGG[Pra]G-NH2 (lactam 5-14) [P2-67] | – | binds | –
B11 | 0.5 ratio | – | –
DPCTWEVWXRECLQGGGG (free N-terminus; Sar at 9; Cys3-Cys12 disulfide; Par at 17; C-terminal amide) [P2-43] | – | no binding | –
H-GDP[Dap]TWEVWGREDLQGG[Pra]G-NH2 (lactam 4-13) [P2-59] | – | no binding | –
B12 | 8.5 ratio | – | –
B13 | – | no binding | –
B14 | – | no binding | –
H-GDPETWEVWGRE[Dap]LQGG[Pra]G-NH2 (lactam 4-13) [P2-69] | – | no binding | –

biological target: T1, Fc tagged recombinant human EGFR …; experiment: EGF competition ELISA, free peptide
Experimental: An alanine scan was performed on the amino acids within the cyclic portion of the peptide structure to determine which amino acids were critical for binding. Each amino acid within the peptide was individually replaced with alanine. […] Subsequently, an alanine scan of the flanking amino acids on P₁₋₃ was performed.

Binder | Peptide Relative IC50 (normalized to P1)
B15 | 1.9 ratio
B16 | 3.5 ratio
B17 | 2.7 ratio
B18 | 11.5 ratio
B19 | 1 ratio
B20 | 4.4 ratio
B21 | 7.1 ratio
B22 | 3.2 ratio
B23 | 0.7 ratio

biological target: T2, EGF bound EGFR (rhEGFR-Fc with recombinant human EGF pre-injected in SPR or 50 nM EGF present in ELISA) (human, UniProt P00533 25-645; P01133 971-1023); experiment: P2 competition ELISA, 5% ligand density NP
T2 construct: Complex of m1 and m5 as target; also called EGFR in the presence of EGF; With EGF; not shown: Fc tag

Binder | IC50 | Rel IC50 (against P2 NP)
B24 | 3 µg/mL | 0.7 ratio
Ac-DPCT[Igl]EV[Trp(5-OMe)]GRECLQGGK([PEG4′-DBCO′])-NH2 (other, disulfide 3-12; not fully specified, also called aromatic analog NP) [5% P2-102 nanoparticle] | 2.6 µg/mL | 0.6 ratio
B25 | 3.4 µg/mL | 0.79 ratio

From patent US20170224620A1 (Pfizer, published 2017)
